Test results taken from PMC4772808, “Insights from the reconstitution of the divergent outer kinetochore of Drosophila melanogaster” (Open Biology, 2016).
Values belong to the binder of their own block, whether it stands above or below them.

How the values were obtained:
Test in all cases: AUC; sedimentation velocity, 42 000 rpm, 20°C, 20 mM Tris pH 8, 0.15 M NaCl, 1 mM TCEP, absorbance at 280 nm, c(S) analysis with SEDFIT
Conditions in all cases: both partners purified
[1] = target: T1, DmMis12a complex (Mis12:Nnf1a:Kmn1) (Drosophila melanogaster, UniProt Q9VS01 1-181; Q7JZC9 1-194; Q9VYX4 1-183)
T1 construct: Mis12 subunit of the Drosophila melanogaster Mis12 complex; Nnf1a (Nnf1R-1), Drosophila melanogaster; Kmn1, the Nsl1 orthologue of Drosophila melanogaster; source: E. coli BL21(DE3) Rosetta, co-expressed (pST44), purified (His-Trap, ResourceQ, Superdex 200); copies: 1 + 1 + 1
T1 sequence (looked up) 1: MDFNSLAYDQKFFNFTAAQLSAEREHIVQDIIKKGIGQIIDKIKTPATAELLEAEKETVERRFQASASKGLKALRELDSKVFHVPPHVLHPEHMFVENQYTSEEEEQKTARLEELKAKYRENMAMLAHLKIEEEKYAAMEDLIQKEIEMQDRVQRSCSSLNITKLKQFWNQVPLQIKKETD
T1 sequence (looked up) 2: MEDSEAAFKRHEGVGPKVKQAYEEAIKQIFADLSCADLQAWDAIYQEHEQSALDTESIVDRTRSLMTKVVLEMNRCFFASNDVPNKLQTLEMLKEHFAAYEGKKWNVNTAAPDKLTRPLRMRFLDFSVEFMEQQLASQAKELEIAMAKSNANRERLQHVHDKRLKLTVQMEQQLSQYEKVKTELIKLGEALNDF
T1 sequence (looked up) 3: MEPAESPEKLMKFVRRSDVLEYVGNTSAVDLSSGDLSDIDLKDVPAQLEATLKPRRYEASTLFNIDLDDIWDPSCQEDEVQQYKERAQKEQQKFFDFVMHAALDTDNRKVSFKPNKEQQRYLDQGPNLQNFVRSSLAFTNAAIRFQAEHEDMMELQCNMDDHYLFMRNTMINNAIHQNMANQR

[2] = target: T2, Mis12a:Spc105R^1707–1960 complex (Drosophila melanogaster, UniProt Q9VS01 1-181; Q7JZC9 1-194; Q9VYX4 1-183; M9PIC9 1707-1960)
T2 construct: Mis12 subunit of the Drosophila melanogaster Mis12 complex; Nnf1a (Nnf1R-1), Drosophila melanogaster; Kmn1, the Nsl1 orthologue of Drosophila melanogaster; source: E. coli BL21(DE3) Rosetta, co-expressed (pST44), purified (His-Trap, ResourceQ, Superdex 200); copies: 1 + 1 + 1 + 1
T2 sequence (looked up) 1: T1 sequence (looked up) 1
T2 sequence (looked up) 2: T1 sequence (looked up) 2
T2 sequence (looked up) 3: T1 sequence (looked up) 3
T2 sequence (looked up) 4: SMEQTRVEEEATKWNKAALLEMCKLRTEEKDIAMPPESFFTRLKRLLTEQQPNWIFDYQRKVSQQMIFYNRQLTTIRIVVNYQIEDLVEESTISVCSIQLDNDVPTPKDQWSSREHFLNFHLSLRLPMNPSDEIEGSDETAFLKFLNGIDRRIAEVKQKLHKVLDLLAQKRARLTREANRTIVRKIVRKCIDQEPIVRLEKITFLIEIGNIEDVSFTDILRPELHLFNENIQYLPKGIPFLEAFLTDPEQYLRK

[3] = target: T3, DmMis12b complex (Mis12:Nnf1b:Kmn1) (Drosophila melanogaster, UniProt Q9VS01 1-181; Q8IPW3 1-204; Q9VYX4 1-183)
T3 construct: Mis12 subunit of the Drosophila melanogaster Mis12 complex; Nnf1b (Nnf1R-2), Drosophila melanogaster; Kmn1, the Nsl1 orthologue of Drosophila melanogaster; source: E. coli BL21(DE3) Rosetta, co-expressed (pST44), purified (His-Trap, ResourceQ, Superdex 200); copies: 1 + 1 + 1
T3 sequence (looked up) 1: T1 sequence (looked up) 1
T3 sequence (looked up) 2: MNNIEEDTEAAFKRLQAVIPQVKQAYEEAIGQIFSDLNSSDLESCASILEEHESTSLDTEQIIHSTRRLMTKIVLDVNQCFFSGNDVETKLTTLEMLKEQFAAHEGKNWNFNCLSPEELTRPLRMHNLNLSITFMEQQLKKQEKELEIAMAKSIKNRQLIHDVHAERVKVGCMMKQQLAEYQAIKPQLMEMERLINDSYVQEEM
T3 sequence (looked up) 3: T1 sequence (looked up) 3

stoichiometry N [1]: 1
stoichiometry N [2]: 1
B1: DmCENP-C^1–105 (domain or fragment, Drosophila melanogaster, UniProt Q9VHP9 1-105, looked up)
chain: MSKPQNNDTLELDDILSQPVKDKERFAAFMMRKLAENKPAQNDNLFGNFKLDFDLDFEVPLIKKSQAKPKSKLPEVQPLGELVSKNSAATEKVNEPPVDQAPNEN
notes: source: E. coli BL21(DE3) Rosetta, purified (His-Trap, ResourceQ, Superdex 200)

stoichiometry N [1]: 1
stoichiometry N [3]: 1
B2: Spc105R^1707–1960 (domain or fragment, Drosophila melanogaster, UniProt M9PIC9 1707-1960, looked up)
chain: T2 sequence (looked up) 4
notes: Soluble only when co-expressed with the Mis12a or Mis12b complex
